According to patent US20220017627A1:
Where a chain is given by its changes, count along the chain named. In names and notes the source's numbering stands. Blank lines part the entries; values can stand above or below the binder they belong to.

How the values were obtained:
[1] = molecular target: human IL-7Rα expressed on non-T cells (CD3- cells, monocytes) (human) (UniProt P16871); assay: cell-based or functional assay
[2] = molecular target: T1, hIL-7R (Example 11) (human) (UniProt P16871); assay: SPR (Biacore), ratio KD of parent 18B1 to KD of variant
T1 sequence: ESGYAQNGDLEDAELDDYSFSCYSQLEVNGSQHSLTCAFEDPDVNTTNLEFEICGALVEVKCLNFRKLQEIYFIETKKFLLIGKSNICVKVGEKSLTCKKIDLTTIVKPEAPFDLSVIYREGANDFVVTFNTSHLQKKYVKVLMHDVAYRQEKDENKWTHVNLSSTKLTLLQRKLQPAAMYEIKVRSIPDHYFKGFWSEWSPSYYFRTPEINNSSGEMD

[3] = molecular target: T1, hIL-7R (Example 11) (human); assay: NGS enrichment ratio of the mutation in the scFv library selected at 0.2 nM hIL-7R
[4] = molecular target: T1, hIL-7R (Example 11) (human); assay: SPR at 37C
[5] = molecular target: T1, hIL-7R (Example 11) (human); assay: NGS enrichment ratio, parental scFv, reference of the normalisation [cont'd]

B2: 18B1 LC Y94A (antibody, human IgG1, kappa, V domains shown)
VH: EVQLVESGGGLVQPGRSLRLSCAASGFTFDDHAMHWVRQAPGKGLEWVSGISWNSRGIGYADSVKGRFTIFRDNAKNSLYLQMNSLRAEDTALYYCAKDEYSRGYYVLDVWGQGTTVTVSS
VL: AIQLTQSPSSLSASVGDRVTITCRASQGISSALAWYQQKPGKAPKLLIYDASSLESGVPSRFSGSGSGTDFTLTISSLQPEDFATYYCQQFNSAPLWITFGQGTRLEIKR
- KD Relative to 18B1 [2]: 0.01
- 0.2 nM NGS [3]: 0.01

B3: 18B1 LC L95aA (antibody, V domains shown)
VH: B2 VH
VL: B2 VL with A94Y, L96A
- KD Relative to 18B1 [2]: 0.01
- 0.2 nM NGS [3]: 0.01

Next, values leading:

- MCP1 Production IC50, purified monocytes, TSLP [1]: 24 nM
B1: Anti-IL-7R Antibody (Antibody A) (antibody, human IgG1, kappa, V domains shown)
VH: B2 VH
VL: B2 VL with A94Y

- Kd [4]: 1.3 nM
- koff [4]: 0.000403 s⁻¹
- kon [4]: 311000 M⁻¹ s⁻¹
- 0.2 nM NGS [5]: 1
B4: 18B1 scFv (scFv, V domains shown, not shown: small tags and cut ends)
VH: B2 VH
VL: AIQLTQSPSSLSASVGDRVTITCRASQGISSALAWYQQKPGKAPKLLIYDASSLESGVPSRFSGSGSGTDFTLTISSLQPEDFATYYCQQFNSYPLWITFGQGTRLEIK
modifications: linker; domain order unknown
